Reference: publication PMC10856354 (International Journal of Molecular Sciences, 2024)
“And” between values parts separate entries of the source, which are not always exact repeats. Identical values can stand only once. Where a SMILES comes first, the peptide text is derived from it. Bridges are numbered along the chain shown (N, C = ends). [ ]: non-standard residue; d: D form. The star is where a group is joined. DOTA = O=C(O)CN1CCN(CC(=O)O)CCN(CC(=O)*)CCN(CC(=O)O)CC1

Assays:
[1] = molecular target: T1, hSST2R (Homo sapiens, UniProt P30874); experiment: Immunofluorescence microscopy-based internalization assay in HEK293-hSST2R cells; type: cell-based; details: for ligand-induced hSST2R internalization (agonism): 30 min at 37 °C
T1 construct: expressed in transfected cells
Procedure: Figure 3 Agonist stimulated hSST2R-internalization in HEK293-hSST2R cells determined by immunofluorescence microscopy.
An immunofluorescence microscopy-based internalization assay for hSST2R was performed in HEK293-hSST2R cells, grown on poly-DLys (20 μg/mL) (Sigma-Aldrich, St. Louis, MO, USA) coated 35-mm four-well plates (Cellstar, Greiner Bio-One GmbH, Frickenhausen, Germany). […] HEK293-hSST2R cells treated with vehicle alone were used as a negative control. The cells were then rinsed twice with PS (100 mM phosphate buffer containing 0.15 M sucrose), fixed and permeabilized for 7 min with cold methanol (−20 °C), rinsed twice with PS, and then blocked for 60 min at room temperature with PS containing 0.1% BSA. Next, cells were incubated for 60 min at room temperature with the hSST2R-specific primary antibody R2-88 (provided by Dr. A. Schönbrunn, Houston, TX, USA) diluted 1:1000 in PS and washed 3 × 5 min with PS containing 0.1% BSA. The cells were incubated for 60 min at room temperature in the dark with the secondary antibody Alexa Fluor 488 goat anti-rabbit IgG (H+ L) (Molecular Probes, Inc., Eugene, OR, USA) diluted in PS (1:600), washed 3 × 5 min with PS containing 0.1% BSA, embedded with PS/glycerol 1:1, and covered with a glass cover slip. The cells were imaged using a Leica DM RB immunofluorescence microscope (Leica, Deerfield, IL, USA) and an Olympus DP10 camera (Olympus Corporation, Shinjuku, Tokyo, Japan).

[2] = molecular target: T1, hSST2R; experiment: Receptor autoradiography competition binding vs [125I]I-[LTT]SS28
Procedure: (§1) Cell membrane pellets were prepared from CHO-hSST1R cells, CCL39-hSST2R, CCL39-hSST3R, and CCL39-hSST4R cells, and HEK293-hSST2R cells and stored at −80 °C. Receptor autoradiography was performed on 20-μm-thick cryostat (Microm HM 500, Walldorf, Germany) sections of the membrane pellets mounted on microscope slides, and then stored at −20 °C, as previously described. […] The incubated sections were washed twice for 5 min in cold 170 mmol/L Tris-HCl (pH 8.2) containing 0.25% BSA. After a brief dip in 170 mmol/L Tris-HCl (pH 8.2), the sections were dried quickly and exposed for 1 week to Kodak BioMax MR film (Rochester, NY, USA). IC50 values were calculated after quantification of the data using a computer-assisted image processing system as described previously. Tissue standards (Autoradiographic [^125I] and/or [^14C] microscales, GE Healthcare; Little Chalfont, UK) that contain known amounts of isotope, cross-calibrated to tissue-equivalent ligand concentrations, were used for quantification.

[3] = molecular target: T2, hSST3R (Homo sapiens, UniProt P32745); experiment: as above
T2 construct: expressed in transfected cells; host or cells: CCL39 cells, gift of Dr. D. Hoyer (Novartis Pharma)
Procedure: as §1

[4] = molecular target: T3, hSST1R (Homo sapiens, UniProt P30872); experiment: as above
T3 construct: expressed in transfected cells; host or cells: CHO cells, gift of Drs; T. Reisine and G. Singh
Procedure: as §1

[5] = molecular target: T4, hSST5R (Homo sapiens, UniProt P35346); experiment: as above
T4 construct: expressed in transfected cells

[6] = mice, blood collected 5 min pi, radio-HPLC
Procedure: At 5 min pi blood (~1mL) was collected from the heart of mice in a prechilled insulin syringe and swiftly placed in an ice-cold polypropylene tube containing EDTA on ice. Blood samples were centrifuged at 2000× g at 4 °C for 10 min. […] The mixture was centrifuged for 10 min at 15,000× g at 4 °C. […] An RP18 Symmetry Shield cartridge column (5 μm, 3.9 mm × 20 mm, Waters, Vienna, Austria) was eluted at a 1 mL/min flow rate with the following gradient: 100%A/0%B to 60%A/40%B in 40 min, whereby A = 0.1% aqueous TFA and B = MeCN (system 3).

[7] = in vivo; details: male, SCID, mouse, iv, total radioactivity
Procedure: (§2) For biodistribution experiments, male SCID mice of 7 weeks of age (15–20 g) on arrival day (NCSR ‘‘Demokritos’’ Animal House, Athens, Greece) were subcutaneously injected in their flanks with a suspension of AR4-2J cells (150 μL inocula of ~1 × 10^7 cells in PBS). The animals were kept under aseptic conditions for 12 days until well-palpable tumors were grown at the inoculation site. […] In an additional group, animals were co-injected with excess TATE (100 nmol) together with the radioligand (blocked animals) and were sacrificed at 4 h pi. Blood was immediately collected, and the organs of interest were excised and weighed. Sample radioactivity was measured in the γ-counter using proper standards of the injected activity. Data were calculated as %IA/g with the aid of standard solutions and represent mean values ± sd. For comparisons, a Two-way ANOVA with Tukey’s post hoc analysis was applied (PRISM^TM GraphPad—6 Software, San Diego, CA, USA). p values < 0.05 were considered statistically significant.

[8] = test system: AR4-2J tumor-bearing SCID mice (rSST2R-positive); experiment: in vivo; details: AR4-2J mice, 4 h pi, block: co-injection of 100 nmol TATE; mean ± sd, n = 4
Procedure: as §2

[9] = test system: HEK293-hSST3R tumor-bearing SCID mice; experiment: in vivo; details: HEK293-hSST3R mice, 4 h pi, block: co-injection of 80 nmol KE108; mean ± sd, n = 4
Procedure: (§3) For the second biodistribution experiments, male SCID mice of 7 weeks of age (15–20 g) on arrival day (NCSR ‘‘Demokritos’’ Animal House, Athens, Greece) were subcutaneously injected in their flanks with a suspension of HEK293-hSST3R cells (150 μL inocula of ~3 × 10^7 cells in PBS). The animals were kept under aseptic conditions for 3–4 weeks until well-palpable tumors were grown at the inoculation site. […] Mice were sacrificed at 4 h pi, and biodistribution analyses were conducted, as described above.

[10] = in vivo; details: male, SCID, mouse, iv, total radioactivity; remark: listed apart in the source
Procedure: as §3

[11] = AR4-2J tumor, 10 pmol total peptide
[12] = pancreas, 10 pmol total peptide

T1 sequence (P30874 whole entry): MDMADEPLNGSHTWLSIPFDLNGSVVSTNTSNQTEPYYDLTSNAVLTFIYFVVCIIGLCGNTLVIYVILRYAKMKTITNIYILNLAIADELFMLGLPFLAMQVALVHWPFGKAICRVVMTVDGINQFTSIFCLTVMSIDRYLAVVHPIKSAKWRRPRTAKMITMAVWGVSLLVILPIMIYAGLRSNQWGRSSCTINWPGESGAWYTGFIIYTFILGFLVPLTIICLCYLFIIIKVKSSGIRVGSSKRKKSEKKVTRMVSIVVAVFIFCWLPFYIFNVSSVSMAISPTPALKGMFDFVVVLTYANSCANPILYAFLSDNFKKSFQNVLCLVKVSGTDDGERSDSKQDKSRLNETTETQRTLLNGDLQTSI
T4 sequence (P35346 whole entry): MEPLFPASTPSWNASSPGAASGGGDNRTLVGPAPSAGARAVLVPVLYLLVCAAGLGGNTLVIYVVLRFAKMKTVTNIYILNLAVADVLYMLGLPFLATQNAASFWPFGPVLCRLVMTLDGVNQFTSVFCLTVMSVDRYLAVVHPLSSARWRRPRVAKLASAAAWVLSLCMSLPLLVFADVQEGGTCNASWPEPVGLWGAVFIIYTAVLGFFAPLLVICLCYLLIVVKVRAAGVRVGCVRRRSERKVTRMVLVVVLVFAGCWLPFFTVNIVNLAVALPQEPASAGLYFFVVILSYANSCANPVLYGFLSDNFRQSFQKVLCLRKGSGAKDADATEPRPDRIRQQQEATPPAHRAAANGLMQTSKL
T3 sequence (P30872 whole entry): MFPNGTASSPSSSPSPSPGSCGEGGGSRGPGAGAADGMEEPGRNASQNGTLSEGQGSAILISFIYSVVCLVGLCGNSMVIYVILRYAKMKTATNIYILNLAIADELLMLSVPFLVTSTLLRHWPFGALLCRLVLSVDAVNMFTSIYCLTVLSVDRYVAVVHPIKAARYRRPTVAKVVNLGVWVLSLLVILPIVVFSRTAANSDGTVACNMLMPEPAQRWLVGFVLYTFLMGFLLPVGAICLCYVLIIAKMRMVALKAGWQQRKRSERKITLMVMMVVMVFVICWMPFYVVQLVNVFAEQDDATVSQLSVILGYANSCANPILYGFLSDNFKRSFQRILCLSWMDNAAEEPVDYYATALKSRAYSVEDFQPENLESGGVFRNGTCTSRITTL
T2 sequence (P32745 whole entry): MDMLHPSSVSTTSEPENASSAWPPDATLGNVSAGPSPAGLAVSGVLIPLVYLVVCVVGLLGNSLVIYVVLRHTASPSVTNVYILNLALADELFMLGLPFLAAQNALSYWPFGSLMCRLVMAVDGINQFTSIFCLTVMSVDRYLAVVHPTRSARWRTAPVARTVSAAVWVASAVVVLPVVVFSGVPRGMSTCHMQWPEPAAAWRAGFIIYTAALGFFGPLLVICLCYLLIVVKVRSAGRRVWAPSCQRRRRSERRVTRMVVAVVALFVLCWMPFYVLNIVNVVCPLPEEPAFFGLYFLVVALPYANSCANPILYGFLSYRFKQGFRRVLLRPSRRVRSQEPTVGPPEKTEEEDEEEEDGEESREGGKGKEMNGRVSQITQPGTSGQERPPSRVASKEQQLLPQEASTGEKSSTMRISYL

## C[C@H](NC(=O)CN1CCN(CC(=O)O)CCN(CC(=O)O)CCN(CC(=O)O)CC1)C(=O)NCC(=O)N[C@H]1CSSC[C@@H](C(=O)O)NC(=O)[C@H](CO)NC(=O)[C@H]([C@@H](C)O)NC(=O)[C@@H]2CSSC[C@H](NC(=O)[C@H](CC(N)=O)NC(=O)[C@H](CCCCN)NC1=O)C(=O)N[C@@H](Cc1ccccc1)C(=O)N[C@H](Cc1c[nH]c3ccccc13)C(=O)N[C@@H](CCCCN)C(=O)N[C@@H]([C@@H](C)O)C(=O)N2 [AT5S, DOTA-Ala^1-Gly^2-c[Cys^3-Lys^4-Asn^5-c[Cys^6-Phe^7-DTrp^8-Lys^9-Thr^10-Cys^11]-Thr^12-Ser^13-Cys^14]] ({DOTA}-AGCKNCF[dW]KTCTSC-OH; disulfide 3-14, 6-11)
[1]; 1 µM
  ligand-induced hSST2R internalization (agonism): failed to trigger the hSST2R internalization
[1]; 10 µM test peptide + 10 nM SS14, 30 min at 37 °C
  prevention of SS14-induced hSST2R internalization (antagonism): failed to prevent the hSST2R internalization
[1]; 10 µM
  ligand-induced hSST2R internalization (agonism): failed to trigger the hSST2R internalization
[2]
  IC50: 616 ± 148 nM
[3]
  IC50: > 1000 nM
[4]
  IC50: > 1000 nM
[5]
  IC50: > 1000 nM

## C[C@H](NC(=O)CN1CCN(CC(=O)O)CCN(CC(=O)O)CCN(CC(=O)O)CC1)C(=O)NCC(=O)N[C@H]1CSSC[C@@H](C(=O)O)NC(=O)[C@H](CO)NC(=O)[C@@H]2CSSC[C@H](NC(=O)[C@H](CCCCN)NC1=O)C(=O)N[C@@H](Cc1ccccc1)C(=O)N[C@@H](Cc1ccccc1)C(=O)N[C@H](Cc1c[nH]c3ccccc13)C(=O)N[C@@H](CCCCN)C(=O)N[C@@H]([C@@H](C)O)C(=O)N[C@@H](Cc1ccccc1)C(=O)N2 [AT6S, DOTA-Ala^1-Gly^2-c[Cys^3-Lys^4-c[Cys^5-Phe^6-Phe^7-DTrp^8-Lys^9-Thr^10-Phe^11-Cys^12]-Ser^13-Cys^14]] ({DOTA}-AGCKCFF[dW]KTFCSC-OH; disulfide 3-14, 5-12)
[1]; 1 µM
  ligand-induced hSST2R internalization (agonism): behaved as a potent agonist
[2]
  IC50: 6.3 ± 0.6 nM
[2]; vs AT2S
  lower affinity for hSST2R compared with AT2S: < 4 fold
[2]; vs SS14
  drop in binding affinity for hSST2R compared with native hormone: 9 fold
[3]
  IC50: 9.7 ± 3.6 nM
[3]; vs AT2S
  lower affinity for hSST3R compared with AT2S: ≈ 4 fold
[3]; vs SS14
  drop in binding affinity for hSST3R compared with native hormone: ≈ 3 fold
[4]
  IC50: 12 ± 3.3 nM
[4]; vs SS14
  drop in binding affinity for hSST1R compared with native hormone: < 6 fold
[5]
  IC50: 26 ± 7 nM
[5]; vs AT2S
  lower affinity for hSST5R compared with AT2S: < 2 fold
[5]; vs SS14
  drop in binding affinity for hSST5R compared with native hormone: < 6 fold

## C[C@H](NC(=O)CN1CCN(CC(=O)O)CCN(CC(=O)O)CCN(CC(=O)O)CC1)C(=O)NCC(=O)N[C@H]1CSSC[C@@H](C(=O)O)NC(=O)[C@H](CO)NC(=O)[C@H]([C@@H](C)O)NC(=O)[C@@H]2CSSC[C@H](NC(=O)[C@H](CC(N)=O)NC(=O)[C@H](CCCCN)NC1=O)C(=O)N[C@@H](Cc1ccccc1)C(=O)N[C@H](Cc1c[nH]c3ccccc13)C(=O)N[C@@H](CCCCN)C(=O)N[C@@H]([C@@H](C)O)C(=O)N2 [[^111In]In-AT5S, metal not drawn] ({DOTA}-AGCKNCF[dW]KTCTSC-OH; disulfide 3-14, 6-11)
[6]
  % intact radioligand in peripheral blood: > 96%

## C[C@H](NC(=O)CN1CCN(CC(=O)O)CCN(CC(=O)O)CCN(CC(=O)O)CC1)C(=O)NCC(=O)N[C@H]1CSSC[C@@H](C(=O)O)NC(=O)[C@H](CO)NC(=O)[C@@H]2CSSC[C@H](NC(=O)[C@H](CCCCN)NC1=O)C(=O)N[C@@H](Cc1ccccc1)C(=O)N[C@@H](Cc1ccccc1)C(=O)N[C@H](Cc1c[nH]c3ccccc13)C(=O)N[C@@H](CCCCN)C(=O)N[C@@H]([C@@H](C)O)C(=O)N[C@@H](Cc1ccccc1)C(=O)N2 [[^111In]In-AT6S, metal not drawn] ({DOTA}-AGCKCFF[dW]KTFCSC-OH; disulfide 3-14, 5-12)
[7]; [11]
  tissue uptake at 4 h: 1.9 ± 0.1 %ID/g
  tissue uptake at 24 h: 0.8 ± 0.1 %ID/g
[7]; blood, 10 pmol total peptide
  tissue uptake at 4 h: 0.3 ± 0.01 %ID/g
  tissue uptake at 24 h: 0.07 %ID/g
[7]; femur, 10 pmol total peptide
  tissue uptake at 24 h: 0.6 ± 0.1 %ID/g
[7]; heart, 10 pmol total peptide
  tissue uptake at 4 h: 0.5 ± 0.05 %ID/g
  tissue uptake at 24 h: 0.3 ± 0.06 %ID/g
[7]; heart, with TATE 100 nmol co-injected (in vivo SST2R blockade)
  tissue uptake at 4 h: 0.7 ± 0.1 %ID/g
[7]; intestines, 10 pmol total peptide
  tissue uptake at 24 h: 0.6 ± 0.08 %ID/g
[7]; kidneys, 10 pmol total peptide
  tissue uptake at 24 h: 34.1 ± 3.9 %ID/g
[7]; kidneys, with TATE 100 nmol co-injected (in vivo SST2R blockade)
  tissue uptake at 4 h: 49.5 ± 10.5 %ID/g
[7]; liver, 10 pmol total peptide
  tissue uptake at 4 h: 16.6 ± 1.5 %ID/g
  tissue uptake at 24 h: 12.1 ± 2.4 %ID/g
[7]; muscle, 10 pmol total peptide
  tissue uptake at 24 h: 0.1 ± 0.03 %ID/g
[7]; [12]
  tissue uptake at 4 h: 0.5 ± 0.1 %ID/g
  tissue uptake at 24 h: 0.4 ± 0.07 %ID/g
[7]; spleen, 10 pmol total peptide
  tissue uptake at 24 h: 6 ± 1.1 %ID/g
[7]; stomach, 10 pmol total peptide
  tissue uptake at 4 h: 0.8 ± 0.04 %ID/g
  tissue uptake at 24 h: 0.3 ± 0.03 %ID/g
[7]; stomach, with TATE 100 nmol co-injected (in vivo SST2R blockade)
  tissue uptake at 4 h: 0.5 ± 0.2 %ID/g
[8]
  Tumor uptake: 0.8 ± 0.05 %IA/g
[6]
  % intact radioligand in peripheral blood: > 98% and > 96%
[9]
  Tumor uptake: 0.3 ± 0.05 %IA/g
[10]; HEK293-hSST3R tumor, 10 pmol total peptide
  tissue uptake at 4 h: 3.7 ± 0.4 %ID/g
[10]; blood, 10 pmol total peptide
  tissue uptake at 4 h: 0.3 ± 0.02 %ID/g
[10]; heart, 10 pmol total peptide
  tissue uptake at 4 h: 0.5 ± 0.05 %ID/g
[10]; heart, with KE108 80 nmol co-injected (in vivo SST3R blockade)
  tissue uptake at 4 h: 0.1 %ID/g
[10]; kidneys, with KE108 80 nmol co-injected (in vivo SST3R blockade)
  tissue uptake at 4 h: 26.8 ± 5.4 %ID/g
[10]; liver, 10 pmol total peptide
  tissue uptake at 4 h: 16.6 ± 1.5 %ID/g
[10]; [12]
  tissue uptake at 4 h: 0.5 ± 0.04 %ID/g
[10]; stomach, 10 pmol total peptide
  tissue uptake at 4 h: 0.8 ± 0.05 %ID/g
[10]; stomach, with KE108 80 nmol co-injected (in vivo SST3R blockade)
  tissue uptake at 4 h: 0.1 ± 0.04 %ID/g

## DOTA-Ala^1-Gly^2-c[Cys^3-Lys^4-Asn^5-Phe^6-Phe^7-Trp^8-Lys^9-Thr^10-Phe^11-Thr^12-Ser^13-Cys^14-OH] [AT1S, reference compound]
[1]; 1 µM
  ligand-induced hSST2R internalization (agonism): clearly able to trigger the internalization of hSST2R
